# Laboratory results: patent US10781452B2, “FLT3 receptor antagonists for the treatment or the prevention of pain disorders” (INSTITUT NATIONAL DE LA SANTE ET DE LA RECHERCHE MEDICALE …, priority 2010, dated 2020)
# Key:
# TRPV1 = biological target: T1, TRPV1 (Mus musculus, UniProt Q704Y3); assay: FL-induced mechanical hyperalgesia with intraplantar TRPV1 inhibitor; assay type: in vivo, mice; settings: intraplantar 10 μl at 30 μg/ml, one hour before FL injection; 12 h
# T1 construct: from tissue; host or cells: living mice, hindpaw
# T1 sequence (Q704Y3 whole entry): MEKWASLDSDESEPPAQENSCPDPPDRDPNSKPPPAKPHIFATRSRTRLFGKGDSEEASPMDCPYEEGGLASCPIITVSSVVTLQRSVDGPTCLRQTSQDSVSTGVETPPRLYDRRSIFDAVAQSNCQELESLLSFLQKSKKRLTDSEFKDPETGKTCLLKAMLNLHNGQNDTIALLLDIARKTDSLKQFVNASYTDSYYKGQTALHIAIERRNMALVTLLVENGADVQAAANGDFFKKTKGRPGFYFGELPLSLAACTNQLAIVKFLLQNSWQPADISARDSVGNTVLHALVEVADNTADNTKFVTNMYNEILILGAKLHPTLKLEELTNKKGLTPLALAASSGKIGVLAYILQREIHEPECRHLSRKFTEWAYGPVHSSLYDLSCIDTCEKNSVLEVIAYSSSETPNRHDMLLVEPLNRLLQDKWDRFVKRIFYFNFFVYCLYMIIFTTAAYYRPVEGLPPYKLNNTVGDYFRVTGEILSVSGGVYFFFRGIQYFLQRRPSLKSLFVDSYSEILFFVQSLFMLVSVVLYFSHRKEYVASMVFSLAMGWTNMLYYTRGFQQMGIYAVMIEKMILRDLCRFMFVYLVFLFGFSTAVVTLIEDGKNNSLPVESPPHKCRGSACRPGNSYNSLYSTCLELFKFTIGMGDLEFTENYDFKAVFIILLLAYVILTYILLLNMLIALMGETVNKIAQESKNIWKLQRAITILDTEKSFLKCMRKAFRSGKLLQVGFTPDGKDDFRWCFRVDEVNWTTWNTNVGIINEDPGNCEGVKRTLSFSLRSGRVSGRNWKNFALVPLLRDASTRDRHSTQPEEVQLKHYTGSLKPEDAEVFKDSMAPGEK
# Method: (§1) Mechanical withdrawal thresholds: The sensitivity to punctuate mechanical stimuli was assessed using the dynamic plantar aesthesiometer (Bioseb, France). Each mouse was placed in a Plexiglass chamber. Sixty minutes later, a mechanical stimulus (a small-diameter blunt metallic filament) was applied to the plantar surface with an increasing force and the paw withdrawal latencies were measured. For each point, mice were tested three times and the responses for each paw were averaged.
# To investigate the potential role(s) of FL in modulating noxious sensitivity through the activation of TRPV1 receptor in vivo, we tested the effect of the TRPV1 inhibitor sb-366791 on the FL-induced mechanical hyperalgesia.
# mice hindpaws [1] = assay: Thermo-nociceptive testing (radiant heat paw withdrawal) after hindpaw injection of FL or NGF; assay type: in vivo; settings: for paw withdrawal latency drop (radiant heat stimulus), thermal hyperalgesia: 12 H after hindpaw injection of 100 ng/10 μl, vs vehicle-injected hindpaws
# Method: (§2) Animals: Adult Swiss mice (8-10 week old) (CERJ, Le Genest St Isle, France) were used according to the guidelines of the International Association for the Study of Pain. Mice were housed in cages with a 12/12 hr light/dark cycle and fed food and water ad libitum.
# (§3) Behavioral experiments: Behavioral responsiveness of the mice was tested following one week of habituation to the testing environment and the observer.
# Thermo-nociceptive testing: Nociceptive threshold to acute thermal stimulation was measured using the paw retrieval test (Bioseb, France). Focused light from 12.5 W projection bulb was applied to the middle of the plantar surface of the hind paw (3 mm diameter). The projection bulb was turned off as soon as the mouse removed its paw, and a digital timer connected in series measured the paw withdrawal latency to an accuracy of 0.1 s. We used a cut-off latency of 15 s to avoid the possibility of tissue damage. For each point, mice were tested three times and the responses for each paw were averaged.
# FL produces thermal and mechanical hyperalgesia in vivo: To investigate the potential role(s) of FL in modulating noxious heat sensitivity in vivo, we first injected FL (100 ng/10 μl) into mice hindpaws, and latency to ipsilateral paw withdrawal from a radiant heat stimulus was measured. […] At 12 H after injection, FL induced a significant thermal hyperalgesia (latency drop around 30%) compared to control mice hindpaws injected with vehicle (p<0.001) (FIG. 1A). For comparison, NGF (100 ng/10 μ) induced a significant latency drop of 25% at 12 H (FIG. 1A).
# mice hindpaws [2] = assay: Mechanical withdrawal (von Frey hair filaments) after hindpaw injection of FL or NGF; assay type: in vivo
# Method: as §2, §3, §1
# We next tested the role of FL in modulating noxious mechanical sensitivity in vivo. […] For comparison, NGF (100ng/10μ1) induced a foot withdrawal response decrease of 30% at 12 H (P<0.001) (FIG. 1B).
# [3] = tested on: TRPV1 positive sensory neurons; assay: FL potentiation of capsaicin [Ca2+]i response (Fura-2 imaging) in DRG neurons; assay type: cell-based, mice
# Method: DRG neurons primary culture: Primary neuronal cultures were established from lumbar (L4 to L6) dorsal root ganglia (DRG) of adult mice as previously described (Boudes et al, 2009). Ganglia were treated twice with collagenase A (1 mg/ml, Roche Diagnostic, France) for 45 minutes (37° C.) and then with trypsin-EDTA (0.25%, Sigma, St Quentin Fallavier, France) for 30 minutes. They were mechanically dissociated by passing 8 to 10 times through the tip of a fire-polished Pasteur pipette in neurobasal (Life Technologies, Cergy Pontoise, France) culture medium supplemented with 10% foetal bovine serum and DNase (50 U/ml, Sigma, St Quentin Fallavier, France). Isolated cells were collected by centrifugation and suspended in neurobasal culture medium supplemented with 2% B27 (Life Technologies), 2 mM glutamine, penicillin/streptomycin (20 U/ml, 0.2 mg/ml). Dissociated neurons were plated on poly-D,L-ornithine (0.5 mg/ml)-laminin (5 μg/ml)-coated glass coverslips at a density of 2500 neurons per well and were incubated in an incubator with a humidified 95% air/5% CO2 atmosphere. Two hours after plating, the culture medium was carefully removed and replaced to eliminate dead cells and tissue debris. The cells were maintained in culture at 37° C. until experiments were performed. […]
# Cells were imaged with a inverted microscope equipped with a NEOFLUAR 25×0.8 objective lens (Axiovert 200, Zeiss, Le Pecq, France) and a CCD camera (Cool SNAP ES, Roper Scientific, France). […] A Fura filter cube with 400 long pass dichroic and D510/40m emission band pass was used to collect fluorescence emissions separately for each wavelength. Images were acquired and analyzed with Metafluor software (Molecular Devices). Changes in intracellular calcium concentrations ([Ca^2+]i ) were monitored as changes of the ratio of the fura-2-fluorescence intensity recorded at 340 nm and 380 nm excitation wavelengths (ΔF340/380). […]
# Each neuron was stimulated three times by capsaicin at 4-5 min interval. […] Response areas were calculated as a measure of total Ca^2+ influx. […]
# [4] = 12H after hindpaw injection of 100 ng/10 μl
# [5] = all capsaicin responders, potentiated and unaffected
molecule,measurement,setting,value
COc1cccc(NC(=O)/C=C/c2ccc(Cl)cc2)c1 [sb-366791],"foot withdrawal response to von Frey hair filaments after FL injection, vs control mice",TRPV1,did not show any change in the foot withdrawal response
"NGF: nerve growth factor, used as positive control","paw withdrawal latency drop (radiant heat stimulus), thermal hyperalgesia",mice hindpaws [1],25%
same,foot withdrawal response decrease,mice hindpaws [2]; [4],30%
"FL: cytokine which is a natural ligand of the FLT3 receptor (protein, UniProt P49771 27-235, looked up) Fms-related tyrosine kinase 3 …: TQDCSFQHSPISSDFAVKIRELSDYLLQDYPVTVASNLQDEELCGGLWRLVLAQRWMERLKTVAGSKMQGLLERVNTEIHFVTKCAFQPPPSCLRFVQTNISRLLQETSEQLVALKPWITRQNFSRCLELQCQPDSSTLPPPWSPRPLEATAPTAPQPPLLLLLLLPVGLLLLAAAWCLHWQRTRRRTPRPGEQVPPVPSPQDLLLVEH",cells that respond to capsaicin showing potentiation of the capsaicin response,"[3]; FL at 10 and 100 ng/ml, adult DRG neurons",56%
same,"mean fold increase in TRPV1 response, ΔFarea",[3]; [5],≈ 512%
same,"mean fold increase in TRPV1 response, ΔFpeak",[3]; [5],212%
same,"paw withdrawal latency drop (radiant heat stimulus), thermal hyperalgesia",mice hindpaws [1],around 30%
same,onset of heat hyperalgesia,mice hindpaws [1]; hindpaw injection 100 ng/10 μl,within one/two hours
same,return of heat hyperalgesia to control values,mice hindpaws [1]; hindpaw injection 100 ng/10 μl,6 days
same,"foot withdrawal response to von Frey hair filaments reduced to, compared to control",mice hindpaws [2]; [4],50%
same,onset of mechanical hyperalgesia,mice hindpaws [2]; hindpaw injection 100 ng/10 μl,within one/two hours
same,return of mechanical hyperalgesia to control values,mice hindpaws [2]; hindpaw injection 100 ng/10 μl,6 days
